Data published in patent US20040214773A1 (UNIVERSITY OF CHICAGO, published 2004).

Target: human cathepsin B (human, UniProt P07858 80-333)
Assay: second-order association rate constant from continuous hydrolysis of (Z-FR)2-R110, pseudo-first order conditions, 20 nM cathepsin B, 200 or 400 nM Spi2A
Description: Kinetics of cathepsin B inhibition by Spi2A. […] Briefly, 20 nM cathepsin B was added to 5 μM substrate, in presence or in absence of 200 or 400 nM (10- or 20-fold excess respectively) of Spi2A in activation buffer. Reactions were performed in 96-well microtitre plates. The final reaction volume was 200 μl. The rate of substrate hydrolysis was continuously monitored for 3 min. The dead time for the measurement (the time between the addition of the enzyme to the substrate (with or without inhibitor) and the first spectrophotometric measurement was ˜30 s.

B1: Spi2A-3xFLAG (murine serine protease inhibitor 2A with a C-terminal 3xFLAG epitope tag) (other)
chain: MAGVSPAVFGCPDVTLGRNTAVREVQENVTSVDSLTLVSSNTDFAFSLYRKLVLKNPDENVVFSPFSICTALALLSLGAKSNTLKEILEGLKFNLTETPEPDIHQGFRYLLDLLSQPGNQVQISTGSALFIEKHLQILAEFKEKARALYQAEAFTADFQQPLKATKLINDYVSNHTQGKIKELISGLKESTLMVLVNYIYFKGKWKNPFDPNDTFKSEFYLDEKRSVIVSMMKTGYLTTPYFRDEELSCTVVELKYTGNASAMFILPDQGRMQQVEASLQPETLRKWKNSLKPRMIHELRLPKFSISTDYSLEHILPELGIREVFSTHADLSAITGTKDLRVSQVVHKAVLDVAEKGTEAAAATGMAGVGCCAVFDFLEIFFNRPFLMIISDTKAHIALFMAKVTNPERSTNFPNGEGASSQRLESKRLCFGDPLCLIGQ
notes: Purified from lysates of RelA-/- MEFs transduced with retrovirus encoding Spi2A-3xFLAG (ion exchange, then anti-FLAG column); The ORF was amplified from T cell cDNA; also called FLAG-tagged Spi2A; not shown: C-terminal 3xFLAG (22 amino acids) from the 3xFLAG-CMV-14 vector
B1 gave a kon of over 1e+06 M⁻¹ s⁻¹.
